Reference: article PMC11982978, “Cancer hotspot mutations rewire ERK2 specificity by selective exclusion of docking interactions” (The Journal of Biological Chemistry, 2025)
pIC50: −log10 of the molar value. Where two headings read alike, the source gives them in different places. Values belong to the substance of their own block, whether it stands above or below them.

How the values were obtained:
[1] = molecular target: Active phosphorylated His6-tagged ERK2 R133K (rat (p-0033 says mouse)) (UniProt P63086)
[2] = molecular target: Active phosphorylated His6-tagged ERK2 WT (rat (p-0033 says mouse)) (UniProt P63086)
[3] = molecular target: Active phosphorylated His6-tagged ERK2 E320K (rat (p-0033 says mouse)) (UniProt P63086)
[4] = molecular target: Active phosphorylated His6-tagged ERK2 D319N (rat (p-0033 says mouse)) (UniProt P63086)
[5] = molecular target: Active phosphorylated His6-tagged ERK2 WT (rat (p-0033 says mouse)) (UniProt P63086); remark: listed apart in the source
[6] = molecular target: Active phosphorylated His6-tagged ERK2 R133K (rat (p-0033 says mouse)) (UniProt P63086); remark: listed apart in the source
[7] = molecular target: Active phosphorylated His6-tagged ERK2 E320K (rat (p-0033 says mouse)) (UniProt P63086); remark: listed apart in the source
[8] = molecular target: Active phosphorylated His6-tagged ERK2 WT (rat (p-0033 says mouse)) (UniProt P63086); remark: listed apart in the source
[9] = molecular target: Active phosphorylated His6-tagged ERK2 R133K (rat (p-0033 says mouse)) (UniProt P63086); remark: listed apart in the source
[10] = molecular target: Active phosphorylated His6-tagged ERK2 D319N (rat (p-0033 says mouse)) (UniProt P63086); remark: listed apart in the source
[11] = molecular target: Active phosphorylated His6-tagged ERK2 E320K (rat (p-0033 says mouse)) (UniProt P63086); remark: listed apart in the source
[12] = molecular target: Active phosphorylated His6-tagged ERK2 WT (rat (p-0033 says mouse)) (UniProt P63086); remark: listed apart in the source
[13] = molecular target: Active phosphorylated His6-tagged ERK2 R133K (rat (p-0033 says mouse)) (UniProt P63086); remark: listed apart in the source
[14] = molecular target: Active phosphorylated His6-tagged ERK2 D319N (rat (p-0033 says mouse)) (UniProt P63086); remark: listed apart in the source
[15] = molecular target: Active phosphorylated His6-tagged ERK2 R133K (rat (p-0033 says mouse)) (UniProt P63086); remark: listed apart in the source
[16] = molecular target: Active phosphorylated His6-tagged ERK2 WT (rat (p-0033 says mouse)) (UniProt P63086); remark: listed apart in the source
[17] = molecular target: Active phosphorylated His6-tagged ERK2 D319N (rat (p-0033 says mouse)) (UniProt P63086); remark: listed apart in the source
[18] = molecular target: Active phosphorylated His6-tagged ERK2 E320K (rat (p-0033 says mouse)) (UniProt P63086); remark: listed apart in the source
[19] = molecular target: Active phosphorylated His6-tagged ERK2 D319N (rat (p-0033 says mouse)) (UniProt P63086); remark: listed apart in the source
[20] = molecular target: Active phosphorylated His6-tagged ERK2 R133K (rat (p-0033 says mouse)) (UniProt P63086); remark: listed apart in the source
[21] = molecular target: Active phosphorylated His6-tagged ERK2 WT (rat (p-0033 says mouse)) (UniProt P63086); remark: listed apart in the source
[22] = molecular target: Active phosphorylated His6-tagged ERK2 E320K (rat (p-0033 says mouse)) (UniProt P63086); remark: listed apart in the source
[23] = molecular target: Active phosphorylated His6-tagged ERK2 E320K (rat (p-0033 says mouse)) (UniProt P63086); remark: listed apart in the source
[24] = molecular target: Active phosphorylated His6-tagged ERK2 D319N (rat (p-0033 says mouse)) (UniProt P63086); remark: listed apart in the source
[25] = molecular target: Active phosphorylated His6-tagged ERK2 WT (rat (p-0033 says mouse)) (UniProt P63086); remark: listed apart in the source
[26] = molecular target: Active phosphorylated His6-tagged ERK2 R133K (rat (p-0033 says mouse)) (UniProt P63086); remark: listed apart in the source

Substance: ANAPC5
pIC50 [5]: 4.49
pIC50 [6]: 3.47

Substance: MLXIPL
pIC50 [19]: 4.59
pIC50 [20]: 4.64
pIC50 [21]: 4.74
pIC50 [22]: 4.55

Substance: ZBED6
pIC50 [23]: 4.25
pIC50 [24]: 4.64
pIC50 [25]: 5.17
pIC50 [26]: 5.21

The remaining lines, values ahead:

pIC50 [1]: 3.96
pIC50 [2]: 4.80
pIC50 [3]: 3.80
pIC50 [4]: 3.92
Substance: AEBP1

pIC50 [7]: 4.85
pIC50 [8]: 5.29
pIC50 [9]: 5.24
pIC50 [10]: 5.01
Substance: CBX7

pIC50 [11]: 3.96
pIC50 [12]: 4.64
pIC50 [13]: 4.13
pIC50 [14]: 4.10
Substance: DISC1

pIC50 [15]: 4.57
pIC50 [16]: 4.62
pIC50 [17]: 4.52
pIC50 [18]: 4.40
Substance: ELMSAN1
